Results reported in patent US20250215412A1 (NOVOZYMES A S, published 2025).
Positions count from the first letter of the chain named. Numbers in names are those of the source.

Key:
Assay in all cases: cell-based or functional assay
[1] = biological target: T1, Chryseobacterium sp-62563 deamidase Q130D (Chryseobacterium sp-62563)
T1 sequence: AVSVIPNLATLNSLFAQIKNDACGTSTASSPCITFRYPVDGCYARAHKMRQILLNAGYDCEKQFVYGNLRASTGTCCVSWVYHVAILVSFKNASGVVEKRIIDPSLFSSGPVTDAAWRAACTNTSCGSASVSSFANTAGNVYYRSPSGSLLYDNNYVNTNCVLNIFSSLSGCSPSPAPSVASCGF

[2] = biological target: T2, Chryseobacterium sp-62563 deamidase Q160R (Chryseobacterium sp-62563)
T2 sequence: T1 sequence with D21Q, Q51R

[3] = biological target: T3, Chryseobacterium sp-62563 deamidase Q160N (Chryseobacterium sp-62563)
T3 sequence: T1 sequence with D21Q, Q51N

[4] = biological target: T4, Chryseobacterium sp-62563 deamidase Q160D (Chryseobacterium sp-62563)
T4 sequence: T1 sequence with D21Q, Q51D

[5] = biological target: T5, Chryseobacterium sp-62563 deamidase Q126E (Chryseobacterium sp-62563)
T5 sequence: T1 sequence with Q17E, D21Q

[6] = biological target: T6, Chryseobacterium sp-62563 deamidase Q126D (Chryseobacterium sp-62563)
T6 sequence: T1 sequence with Q17D, D21Q

[7] = biological target: T7, Chryseobacterium sp-62563 deamidase Q126N (Chryseobacterium sp-62563)
T7 sequence: T1 sequence with Q17N, D21Q

[8] = biological target: T8, Chryseobacterium sp-62563 deamidase Q130N (Chryseobacterium sp-62563)
T8 sequence: T1 sequence with D21N

[9] = biological target: T9, Chryseobacterium sp-62563 deamidase Q172I (Chryseobacterium sp-62563)
T9 sequence: T1 sequence with D21Q, Q63I

[10] = biological target: T10, Chryseobacterium sp-62563 deamidase Q126K (Chryseobacterium sp-62563)
T10 sequence: T1 sequence with Q17K, D21Q

[11] = biological target: T11, Chryseobacterium sp-62563 deamidase polypeptide (second polypeptide, deamidase domain), wildtype (Chryseobacterium sp-62563)
T11 sequence: T1 sequence with D21Q

[12] = biological target: T12, Chryseobacterium sp-62563 deamidase Q172E (Chryseobacterium sp-62563)
T12 sequence: T1 sequence with D21Q, Q63E

[13] = biological target: T13, Chryseobacterium sp-62563 deamidase Q172N (Chryseobacterium sp-62563)
T13 sequence: T1 sequence with D21Q, Q63N

B1: Chryseobacterium sp-62563 propeptide F99A (protein)
chain: NQDPNLVAKESNETAMKDFGKTVPVGIEKEDGKFKISFMVTAQPYEIKDSKENAAYISMIKTAVENETPIHVFLKANTNEIAKVDKATDDDIRYFKSVATKEVKEENRK
[1]
  Relative activity of maturated deamidase (% initial rate): > 100
[2]
  Relative activity of maturated deamidase (% initial rate): 86
[3]
  Relative activity of maturated deamidase (% initial rate): > 100
[4]
  Relative activity of maturated deamidase (% initial rate): > 100
[5]
  Relative activity of maturated deamidase (% initial rate): > 100
[6]
  Relative activity of maturated deamidase (% initial rate): 99
[7]
  Relative activity of maturated deamidase (% initial rate): > 100
[8]
  Leakage activity: 0%
  Relative activity of maturated deamidase (% initial rate): 79
[9]
  Relative activity of maturated deamidase (% initial rate): 31
[10]
  Relative activity of maturated deamidase (% initial rate): > 100
[11]
  Leakage activity: 4%
  NanoDSF thermal unfolding temperature: 76.4 ° C.
  Relative activity of maturated deamidase (% initial rate): 52
[12]
  Relative activity of maturated deamidase (% initial rate): 64
[13]
  Relative activity of maturated deamidase (% initial rate): 51
